Biological target: UNC-119 tagged with the C-terminal fragment of Venus (C. elegans) (UniProt Q10658)
Assay: split reporter (BiFC, NanoBiT); BiFC in vivo in transgenic C. elegans (AWC neurons); ODR-3 tagged with VN, partner tagged with VC; read-out is the percentage of animals showing Venus fluorescence

Chain of UniProt Q10658 (Q10658 whole entry, the tested form may be a part): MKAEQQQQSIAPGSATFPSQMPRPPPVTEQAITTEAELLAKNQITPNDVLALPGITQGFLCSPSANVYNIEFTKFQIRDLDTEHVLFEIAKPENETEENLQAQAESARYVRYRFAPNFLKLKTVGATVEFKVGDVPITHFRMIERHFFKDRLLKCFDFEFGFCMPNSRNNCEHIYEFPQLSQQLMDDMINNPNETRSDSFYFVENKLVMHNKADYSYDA

Row | Substance | percent of animals with BiFC
1 | ODR-3^WT tagged with the N-terminal Venus fragment (from UniProt Q18434 1-356) (natural protein) | 81%
2 | ODR-3^A328P tagged with the N-terminal Venus fragment (from UniProt Q18434 1-356) (natural protein) | 51%

Reference: paper PMC12693566
